Measurements as given in paper PMC6533540, “DprA Is Essential for Natural Competence in Riemerella anatipestifer and Has a Conserved Evolutionary Mechanism”.

T1: DprA (DprARa) (Riemerella anatipestifer ATCC11845, UniProt E4TBU2 1-367)
T1 sequence: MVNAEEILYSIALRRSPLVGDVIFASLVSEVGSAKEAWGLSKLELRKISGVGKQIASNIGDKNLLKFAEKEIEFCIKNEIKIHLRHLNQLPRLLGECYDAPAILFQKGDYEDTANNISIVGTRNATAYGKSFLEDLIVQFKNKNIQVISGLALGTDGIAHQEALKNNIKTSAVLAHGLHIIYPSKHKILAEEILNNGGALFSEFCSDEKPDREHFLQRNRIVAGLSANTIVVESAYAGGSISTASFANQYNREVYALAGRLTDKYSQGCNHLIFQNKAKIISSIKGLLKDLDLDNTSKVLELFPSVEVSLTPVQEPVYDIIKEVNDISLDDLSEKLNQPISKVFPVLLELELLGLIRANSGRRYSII


Molecular target: T1, DprA (DprARa)
Experiment: EMSA; 1-20 uM DprA; 25 mM HEPES pH 7.0, 150 mM NaCl, 10% glycerol, 1 mM DTT, 0.05% IGEPAL, 30 min at 30 C; 8% native PAGE in 0.5x TBE on ice
Conditions: protein: recombinant, tags: C-terminal His6, chain copies: 2, label: biotin

Binder | binding result | binding result (blunt)
TAGGCTCTGCTAAGGAAGCGTGGGGTCTGTCTAAGTTGGA (ssDNA) [RA-ssDNA1] | binds | 
dsDNA annealed from RA-ssDNA1 (dsDNA) DNA 1: TAGGCTCTGCTAAGGAAGCGTGGGGTCTGTCTAAGTTGGA DNA 2: TCCAACTTAGACAGACCCCACGCTTCCTTAGCAGAGCCTA |  | binds
AAAAACTACGGAACTGACTAAAGGCAGAAAAACTAAACGG (ssDNA) [RA-ssDNA2] | binds | 
